B1: Ubiquitin carboxyl-terminal hydrolase 1 (Homo sapiens), O94782 (parent)
chain: MPGVIPSESNGLSRGSPSKKNRLSLKFFQKKETKRALDFTDSQENEEKASEYRASEIDQVVPAAQSSPINCEKRENLLPFVGLNNLGNTCYLNSILQVLYFCPGFKSGVKHLFNIISRKKEALKDEANQKDKGNCKEDSLASYELICSLQSLIISVEQLQASFLLNPEKYTDELATQPRRLLNTLRELNPMYEGYLQHDAQEVLQCILGNIQETCQLLKKEEVKNVAELPTKVEEIPHPKEEMNGINSIEMDSMRHSEDFKEKLPKGNGKRKSDTEFGNMKKKVKLSKEHQSLEENQRQTRSKRKATSDTLESPPKIIPKYISENESPRPSQKKSRVKINWLKSATKQPSILSKFCSLGKITTNQGVKGQSKENECDPEEDLGKCESDNTTNGCGLESPGNTVTPVNVNEVKPINKGEEQIGFELVEKLFQGQLVLRTRCLECESLTERREDFQDISVPVQEDELSKVEESSEISPEPKTEMKTLRWAISQFASVERIVGEDKYFCENCHHYTEAERSLLFDKMPEVITIHLKCFAASGLEFDCYGGGLSKINTPLLTPLKLSLEEWSTKPTNDSYGLFAVVMHSGITISSGHYTASVKVTDLNSLELDKGNFVVDQMCEIGKPEPLNEEEARGVVENYNDEEVSIRVGGNTQPSKVLNKKNVEAIGLLGGQKSKADYELYNKASNPDKVASTAFAENRNSETSDTTGTHESDRNKESSDQTGINISGFENKISYVVQSLKEYEGKWLLFDDSEVKVTEEKDFLNSLSPSTSPTSTPYLLFYKKL

Variants of: B1
Conditions: with WDR48, Q8TAF3-1
WDR48, Q8TAF3-1, sequence (Q8TAF3 whole entry): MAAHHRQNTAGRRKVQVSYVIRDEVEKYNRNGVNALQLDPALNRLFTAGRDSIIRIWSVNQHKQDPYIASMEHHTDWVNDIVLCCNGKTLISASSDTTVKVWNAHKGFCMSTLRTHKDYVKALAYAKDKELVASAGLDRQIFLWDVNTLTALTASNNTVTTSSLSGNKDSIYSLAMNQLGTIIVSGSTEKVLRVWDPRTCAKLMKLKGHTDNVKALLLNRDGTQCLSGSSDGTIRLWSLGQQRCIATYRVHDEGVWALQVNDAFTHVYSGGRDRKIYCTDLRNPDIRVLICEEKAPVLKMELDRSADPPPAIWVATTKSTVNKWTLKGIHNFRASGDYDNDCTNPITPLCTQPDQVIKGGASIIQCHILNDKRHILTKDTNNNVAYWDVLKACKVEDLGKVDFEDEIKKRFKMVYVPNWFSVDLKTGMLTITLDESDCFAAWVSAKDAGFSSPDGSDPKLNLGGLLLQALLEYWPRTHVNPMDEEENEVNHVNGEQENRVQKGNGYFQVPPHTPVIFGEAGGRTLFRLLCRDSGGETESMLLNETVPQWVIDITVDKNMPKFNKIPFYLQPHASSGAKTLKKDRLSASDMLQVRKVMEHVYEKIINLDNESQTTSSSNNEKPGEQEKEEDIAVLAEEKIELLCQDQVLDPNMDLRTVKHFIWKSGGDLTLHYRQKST

| effect of a mutation on the interaction | Variant |
| --- | --- |
| disrupting interaction strength | E444K |
